Test results published in patent US20220340685A1 (Novartis, published 2022).
Changes are numbered by the printed parent chain. “And” between values parts separate entries of the source, which are not always exact repeats. Equal values may be shown once.

T1: mouse ENTPD2 on cells (mouse, UniProt O55026 1-495)
T1 sequence: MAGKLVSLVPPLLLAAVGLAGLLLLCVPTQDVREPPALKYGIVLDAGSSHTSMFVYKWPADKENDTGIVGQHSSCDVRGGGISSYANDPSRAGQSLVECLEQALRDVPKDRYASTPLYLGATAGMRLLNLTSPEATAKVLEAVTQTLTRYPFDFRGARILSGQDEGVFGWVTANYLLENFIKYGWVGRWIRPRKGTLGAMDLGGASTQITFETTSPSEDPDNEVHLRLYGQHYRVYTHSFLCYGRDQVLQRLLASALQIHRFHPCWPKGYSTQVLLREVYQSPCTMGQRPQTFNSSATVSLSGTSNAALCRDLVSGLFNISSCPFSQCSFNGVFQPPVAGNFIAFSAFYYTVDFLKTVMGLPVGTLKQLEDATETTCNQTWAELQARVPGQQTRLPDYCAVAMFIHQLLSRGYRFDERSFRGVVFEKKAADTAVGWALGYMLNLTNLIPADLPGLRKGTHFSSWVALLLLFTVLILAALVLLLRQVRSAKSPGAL

T2: recombinant human ENTPD2 (residues 29-462, Y350A mutant) used in crystallographic studies (human, UniProt Q9Y5L3 29-462, N-linked glycosylation observed at Asn129, Asn294, Asn378 and Asn443)
T2 construct: also called human ENTPD2 Y350A; hENTPD2 Y350A
T2 sequence: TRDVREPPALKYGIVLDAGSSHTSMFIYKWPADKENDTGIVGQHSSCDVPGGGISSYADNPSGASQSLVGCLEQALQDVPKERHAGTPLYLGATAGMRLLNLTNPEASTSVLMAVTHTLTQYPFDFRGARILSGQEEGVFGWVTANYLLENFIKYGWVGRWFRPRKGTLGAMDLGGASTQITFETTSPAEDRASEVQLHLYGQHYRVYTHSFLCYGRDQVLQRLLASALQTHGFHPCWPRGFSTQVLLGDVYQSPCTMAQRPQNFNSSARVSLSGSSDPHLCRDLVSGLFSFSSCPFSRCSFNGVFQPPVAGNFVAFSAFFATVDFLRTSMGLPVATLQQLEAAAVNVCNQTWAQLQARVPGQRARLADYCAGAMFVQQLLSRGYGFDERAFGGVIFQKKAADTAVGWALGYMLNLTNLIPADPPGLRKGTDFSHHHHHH

B1: anti-mouse ENTPD2 mAb13 (antibody, mouse IgG2a, kappa, V domains shown)
VH: QVQLVQSGAELKQPGQSVKISCKASGYTFTHYGMNWVKQAPGQGLKWMGWINTDTGNPTYADDFKGRFVFSLDTSVSTAYLQISNLKNEDTATYYCVRYGTLYSGYGFFFDSWGQGTLVTVSS
VL: DIMMTQSPSSLSVSAGEKATITCKSSQSLFNSNTNKNYLNWYLQKPGQSPKLLFYYASTRHTGVPDRFIGSGSGTDFTLTITSVQDEDLADYYCQQWYSYPWTFGPGTKLEIKR
B2: anti-mouse ENTPD2 mAb15 (antibody, mouse IgG2a, kappa, V domains shown)
VH: B1 VH with T30H
VL: B1 VL
B3: anti-mouse ENTPD2 mAb14 (antibody, mouse IgG2a, kappa, V domains shown)
VH: B1 VH with T30W
VL: B1 VL
B4: anti-human ENTPD2 mAb1 (antibody, human IgG1, kappa)
heavy: not shown
light: DIQLTQSPSSLSASVGDRVTITCSASSSVSYIHWFQQKPGKAPKLLIYSTSNLASGVPSRFSGSGSGTFFTLTISSLQPEDFATYFCHQWSSYPWTFGQGTKVEIKRTVAAPSVFIFPPSDEQLKSGTASVVCLLNNFYPREAKVQWKVDNALQSGNSQESVTEQDSKDSTYSLSSTLTLSKADYEKHKVYACEVTHQGLSSPVTKSFNRGEC
B5: anti-human ENTPD2 FAb22 (Fab, V domains shown)
VH: EVKLEQSGPGLVKPSQSLSLTCSVTGYSITSGYYWNWIRQFPGNKLEWMSYISYDGDNNYNPSLKNRISITRDTSKNQFFLKLSSVTTEDTATYYCAGGYYRYGLSYYYVMDYWGQGTSVTVSA
VL: DIKMTQSPASLAVSLGQRATISCKASQSVDYDGNSYMNWYQQKPGQPPKLLIYAASNLESGIPARFSGSGSGTDFTLNIHPVEEEDAATYYCQQSNEDPPTFGGGTKLELKR
notes: Fab with human CH1 and human kappa constant regions; CDRs of mAb16; also called anti-hENTPD2 FAb22
B6: anti-human ENTPD2 FAb23 (Fab, V domains shown)
VH: EVQLQQFGAELVKPGASVKISCKASGYTFTDYNMDWVKQSHGKSLEWIGDINPKYDISTYNQQFKGKATLTVDKSSSTAYMELRSLTSEDTAVYYCARRGFFLYYGINYYYFDVWGAGTTVTVSS
VL: QIVLTQSPAIMSASLGEEITLTCSASSSVSYIHWYQQKSGTSPTLLIYSTSNLASGVPSRFSGSGSGTFYSLTISSVEAEDAADYYCHQWSSYPWTFGGGTKLEIKR
modifications: residue 1 of the light chain observed and modeled as pyroglutamate in the crystal structure
notes: Fab with human CH1 and human kappa constant regions; variable regions of mAb17; also called anti-hENTPD2 FAb23; anti-human ENTPD2 MAB17 Fab

Experiments:
mouse ENTPD2 on cells = biological target: T1, mouse ENTPD2 on cells; assay: cell-based or functional assay
[1] = biological target: human FcγRIIIa, V158 (high affinity variant) (human, UniProt P08637 17-254); assay: cell-based or functional assay
Chain of human FcγRIIIa, V158 (high affinity variant) (P08637 other isoform, or with tags, fused parts or gaps mutant limits assumed): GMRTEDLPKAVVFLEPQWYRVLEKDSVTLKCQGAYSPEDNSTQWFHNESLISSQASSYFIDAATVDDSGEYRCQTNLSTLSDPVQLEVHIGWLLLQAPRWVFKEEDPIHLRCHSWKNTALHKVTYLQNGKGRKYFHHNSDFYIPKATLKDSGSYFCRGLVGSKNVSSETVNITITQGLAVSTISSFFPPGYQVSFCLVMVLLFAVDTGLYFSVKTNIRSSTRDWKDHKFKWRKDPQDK

[2] = biological target: T2, recombinant human ENTPD2 (residues …); assay: X-ray co-crystal structure

Binder | ENTPD2 Functional Assay IC50 (mouse ENTPD2 NIH/3T3 cell-based assay) (mouse ENTPD2 on cells) [nM] | binding result [2] | other results
B1 | 2.8 | – | –
B2 | 5.9 | – | –
B3 | 4.6 | – | –
B4 | – | – | FcγRIIIa signaling, Jurkat NFAT-luciferase reporter cells with RKO target cells, EC50 [1]: 17.3 nM and 2.55 µg/mL
B5 | – | binds | –
B6 | – | binds | –
